The source of these data is paper PMC13252954.

Assay [1] concerns the target PIΔC SVMP metalloproteinase (MP) domain (Echis ocellatus). The assay is described as follows: SEC.
Assay [2] deals with PII SVMP zymogen (Venom metalloprotease PII-SVMP EOC00006, Echis ocellatus) (Echis ocellatus). Description: SEC + other: non-reducing SDS-PAGE.
Assay [3] has as its target integrin αIIbβ3 (human (endogenous in platelets)) (UniProt P08514).
Sequence of UniProt P08514 (P08514 32-1039, chain 1 of 2): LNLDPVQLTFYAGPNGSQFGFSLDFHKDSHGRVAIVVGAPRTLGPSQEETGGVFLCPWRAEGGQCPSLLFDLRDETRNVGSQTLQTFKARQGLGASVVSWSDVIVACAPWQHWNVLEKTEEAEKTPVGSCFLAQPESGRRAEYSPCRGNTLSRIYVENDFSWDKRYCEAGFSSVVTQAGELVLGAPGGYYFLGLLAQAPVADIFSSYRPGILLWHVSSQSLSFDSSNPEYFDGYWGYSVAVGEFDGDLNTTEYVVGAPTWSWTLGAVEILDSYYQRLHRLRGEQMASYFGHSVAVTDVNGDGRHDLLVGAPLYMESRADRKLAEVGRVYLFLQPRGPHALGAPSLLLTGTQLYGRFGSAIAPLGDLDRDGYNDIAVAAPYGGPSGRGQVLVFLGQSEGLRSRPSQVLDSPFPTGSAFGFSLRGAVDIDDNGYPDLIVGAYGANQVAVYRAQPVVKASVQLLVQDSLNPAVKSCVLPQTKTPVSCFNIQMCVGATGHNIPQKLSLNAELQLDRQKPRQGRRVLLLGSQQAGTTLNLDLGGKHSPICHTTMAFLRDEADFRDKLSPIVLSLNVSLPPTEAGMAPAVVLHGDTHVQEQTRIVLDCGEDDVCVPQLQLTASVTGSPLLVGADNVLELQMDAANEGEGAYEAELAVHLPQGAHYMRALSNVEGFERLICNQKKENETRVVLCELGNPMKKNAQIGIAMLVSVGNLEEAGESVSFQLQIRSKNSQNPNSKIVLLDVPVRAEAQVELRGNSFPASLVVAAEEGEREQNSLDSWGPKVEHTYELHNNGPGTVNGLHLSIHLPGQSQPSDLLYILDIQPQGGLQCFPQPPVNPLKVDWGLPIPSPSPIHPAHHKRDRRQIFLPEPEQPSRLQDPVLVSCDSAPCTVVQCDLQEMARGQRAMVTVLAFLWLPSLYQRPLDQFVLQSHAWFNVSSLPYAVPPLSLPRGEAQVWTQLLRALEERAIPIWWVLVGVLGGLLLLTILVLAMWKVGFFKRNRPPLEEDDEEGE
Sequence of UniProt P08514 (P05106 27-788, chain 2 of 2, further chain): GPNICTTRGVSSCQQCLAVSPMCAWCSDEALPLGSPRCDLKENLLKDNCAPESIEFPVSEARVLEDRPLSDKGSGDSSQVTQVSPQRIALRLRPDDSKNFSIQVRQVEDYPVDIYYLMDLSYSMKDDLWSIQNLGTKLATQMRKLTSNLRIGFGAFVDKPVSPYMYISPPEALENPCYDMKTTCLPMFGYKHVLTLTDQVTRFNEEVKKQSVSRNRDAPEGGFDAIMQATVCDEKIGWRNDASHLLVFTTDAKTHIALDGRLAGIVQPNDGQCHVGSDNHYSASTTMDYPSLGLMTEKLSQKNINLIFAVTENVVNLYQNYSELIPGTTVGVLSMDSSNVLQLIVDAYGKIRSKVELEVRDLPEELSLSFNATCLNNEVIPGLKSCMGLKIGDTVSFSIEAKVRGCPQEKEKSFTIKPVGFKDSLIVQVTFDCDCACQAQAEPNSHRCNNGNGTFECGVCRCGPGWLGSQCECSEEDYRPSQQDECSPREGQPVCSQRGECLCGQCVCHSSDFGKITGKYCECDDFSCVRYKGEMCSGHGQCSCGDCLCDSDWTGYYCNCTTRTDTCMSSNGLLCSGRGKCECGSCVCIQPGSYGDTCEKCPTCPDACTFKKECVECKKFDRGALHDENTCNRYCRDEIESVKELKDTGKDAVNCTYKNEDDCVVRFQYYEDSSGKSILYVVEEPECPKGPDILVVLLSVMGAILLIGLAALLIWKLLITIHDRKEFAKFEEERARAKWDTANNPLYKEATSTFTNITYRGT

PI SVMP prodomain (domain or fragment): in assay [1], the stoichiometry N amounted to 1.

Take “PII SVMP zymogen (Venom metalloprotease PII-SVMP EOC00006, Echis ocellatus) (from UniProt A0A3G1E3U2 1-494) (enzyme)”: the stoichiometry N in assay [2] was determined as 2. For the substance activated PII SVMP (enzyme), in assay [3], the 2-MeS-ADP-induced platelet aggregation in human platelet-rich plasma (plate aggregometry), % aggregation at 500 nM SVMP (% aggregation) is 12.
